The source of these data is article PMC5774706, “Investigation of the proton relay system operative in human cystosolic aminopeptidase P” (PLoS ONE, 2018).

Substitutions are numbered along the chain they refer to. Names and notes keep the numbering of the source.

Data set [1] deals with the molecule itself. As to the kind of experiment: AUC; sedimentation velocity, 40000 rpm, 20°C, 10 mM Tris-HCl, absorbance at 280 nm, c(s) by Sedfit; protein at 1 mg/mL; dimer to monomers.
Data set [2] concerns the molecule itself. In words: AUC; sedimentation velocity, 40000 rpm, 20°C, 10 mM Tris-HCl, absorbance at 280 nm, c(s) by Sedfit; protein at 0.1 mg/mL with 10 mM guanidine hydrochloride; dimer to monomers.
Data set [3] concerns the molecule itself. As to the kind of experiment: AUC; sedimentation velocity, 40000 rpm, 20°C, 10 mM Tris-HCl, absorbance at 280 nm, c(s) by Sedfit; protein at 0.1 mg/mL; dimer to monomers.

B1: human cytosolic aminopeptidase P, wild-type (enzyme, UniProt Q9NQW7 1-623, looked up)
chain: MPPKVTSELLRQLRQAMRNSEYVTEPIQAYIIPSGDAHQSEYIAPCDCRRAFVSGFDGSAGTAIITEEHAAMWTDGRYFLQAAKQMDSNWTLMKMGLKDTPTQEDWLVSVLPEGSRVGVDPLIIPTDYWKKMAKVLRSAGHHLIPVKENLVDKIWTDRPERPCKPLLTLGLDYTGISWKDKVADLRLKMAERNVMWFVVTALDEIAWLFNLRGSDVEHNPVFFSYAIIGLETIMLFIDGDRIDAPSVKEHLLLDLGLEAEYRIQVHPYKSILSELKALCADLSPREKVWVSDKASYAVSETIPKDHRCCMPYTPICIAKAVKNSAESEGMRRAHIKDAVALCELFNWLEKEVPKGGVTEISAADKAEEFRRQQADFVDLSFPTISSTGPNGAIIHYAPVPETNRTLSLDEVYLIDSGAQYKDGTTDVTRTMHFGTPTAYEKECFTYVLKGHIAVSAAVFPTGTKGHLLDSFARSALWDSGLDYLHGTGHGVGSFLNVHEGPCGISYKTFSDEPLEAGMIVTDEPGYYEDGAFGIRIENVVLVVPVKTKYNFNNRGSLTFEPLTLVPIQTKMIDVDSLTDKECDWLNNYHLTCRDVIGKELQKQGRQEALEWLIRETQPISKQH
notes: human cytosolic aminopeptidase P (hcAMPP), encoded by XPNPEP1, residues M1 to H623, cloned into pET-28a (NdeI/HindIII); The His-tag is thrombin cleavable; also called hcAMPP; wild-type hcAMPP; source: E. coli Rosetta (DE3), purified (Ni2+ chelating column)
B1: the stoichiometry N (usually a count of units in the complex or per binding partner) in data set [1] came to 2.

B2: human cytosolic aminopeptidase P, R535A mutant (enzyme, UniProt Q9NQW7 1-623, looked up)
chain: B1 chain with R535A
notes: human cytosolic aminopeptidase P (hcAMPP), encoded by XPNPEP1, residues M1 to H623, with R535A made by QuikChange mutagenesis of pET28a-hcAMPP; The His-tag is thrombin cleavable; no cleavage is described; also called R535A hcAMPP; Arg535Ala hcAMPP; source: E. coli Rosetta (DE3), purified (Ni2+ chelating column)
Regarding B2, the “dimer:monomer ratio (printed as monomer:dimer 1:1.5)” value in data set [2] is 1.5. For the same protein, the “stoichiometry N” value in data set [1] was 2. In data set [3], the “dimer:monomer ratio (printed as monomer:dimer 1:0.67)” value was 0.67.

B3: human cytosolic aminopeptidase P, Y527F mutant (enzyme, UniProt Q9NQW7 1-623, looked up)
chain: B1 chain with Y527F
notes: human cytosolic aminopeptidase P (hcAMPP), encoded by XPNPEP1, residues M1 to H623, with Y527F made by QuikChange mutagenesis of pET28a-hcAMPP; The His-tag is thrombin cleavable; no cleavage is described; also called Y527F hcAMPP; Tyr527Phe hcAMPP; source: E. coli Rosetta (DE3), purified (Ni2+ chelating column)
Regarding B3, in data set [1], the “dimer:monomer ratio” value is 3.4 and the “stoichiometry N” value turned out to be 2. The “dimer:monomer ratio” value in data set [3] stood at 1.8.
